Residue numbers refer to the chain shown, from its start. In names and notes the source's numbering stands. Where two headings read alike, the source gives them in different places.

This note sets out measurements from patent US8507245B2, “Site-directed pegylation of arginases and the use thereof as anti-cancer and anti-viral agents” (priority 2009, dated 2013).

Data set [1] has as its system HCT-15 human colorectal cancer cells. Format: in vivo, BALB/c nude mice. The procedure:
Athymic nude BALB/c mice (age of 6-8 weeks) were housed under sterile conditions with 12 hour light-dark cycle and provided with autoclaved feed ad libitum. The mice were acclimated for at least 1 week before the start of experiments. Each nude mouse was implanted with ˜3 mm^3 of in vivo maintained HCT-15 human colorectal cancer cells to the right axilla subcutaneously. When stable palpable tumours of ˜5 mm diameter were developed, the mice were randomly separated into five different groups (Table 6). Intraperitoneal administrations of arginase drugs or control vehicle (PBS) were given twice per week while 5-fluorouracil was given once per week starting from Day 0. Tumour dimensions (L: longest diameter and W: its perpendicular diameter) and body weights were measured on every Mondays, Wednesdays and Fridays with Vernier caliper. Tumour volume was calculated with the formula (½×L×W^2) and no. of fold increase in tumour volume (relative tumour volume) was calculated with reference to Day-0. The results were plotted against time. The mice were euthanized at the end of experiment or when tumour diameter reached 2.5 cm.

For data set [2] the following is noted: sodium phosphate buffer pH 7.4, 25° C.
Description: Either Bacillus caldovelox arginase (BCA) or the human arginase I (HAI) was expressed as described previously. The purification method was the same as described before except 10 mM of metal ion (CoSO4 or MnSO4) was added into the purified protein elution from Nickel affinity chromatography instead of added before Nickel affinity chromatography. Eluted factions containing the arginase enzyme were incubated with 10 mM metal for 15 min at 50˜55° C., followed by filtration through a 0.45 μm syringe filter. Then the solution was exchanged with storage buffer by ultrafiltration.
The mutant genes were cloned, expressed and purified for detailed studies.
The test system of data set [3] is hepatocellular carcinoma Hep3B cells. Format: in vivo, BALB/c nude mice. Conditions: for effect on tumour growth (tumour volume) vs PBS control: 500 Units/mouse i.p. weekly for 8 weeks, HAI-PEG20 effect from Day 47 (p<0.01); for average body weight: mouse, in vivo, ip. The procedure:
A number of BALB/c nude mice were injected with hepatocellular carcinoma Hep3B cells intraperitoneally (i.p.) and maintained in vivo. Then each of the 30 BALB/c nude mice was injected with ˜1×10^6 of the in vivo maintained cancer cells to the right axilla subcutaneously. When palpable tumours of 5 mm diameter were developed, the mice were separated into three different groups (see Table 3). Drugs or PBS buffer were administered intraperitoneally weekly starting on day 0 for 8 weeks. Body weights and tumour dimensions (L: length of the longer diameter and W: length of the shorter diameter of the tumour) were measured twice a week. Tumour volume (½×L×W^2) was calculated and plotted against time. After 60 days or when tumour diameter reached 2.5 cm, the mice were euthanized. Survival rates of the mice were recorded at the end of the study.

The subject of data set [4] is blood arginine. The experiment in a line: Pharmacodynamics: depletion of arginine in BALB/c normal mice. The data set is classed as in vivo. Conditions: plasma, single i.p. dose. As for the experimental part:
Pharmacodynamics of Cys^45 pegylated human arginase I and Cys^161 pegylated Bacillus caldovelox arginase were studied using BALB/c normal mice. The study was carried out in conjunction with the pharmacokinetic study (described below). Therefore, the protocol remained the same. Again, the blood samples collected was centrifuged immediately at 13,200 rpm for 5 minutes and the plasma layer were collected for further analysis using the Amino Acid Analyzer (Biochrom 30, Biochrom Ltd., England).

For data set [5], the system named is HIV-1 strain RF. The data set can be described thus: HIV replication (virus inhibition) assay in H9 cells.
Data set [6] can be described thus: Steady-state kinetics of human arginase I with Mn2+ or Co2+ (DAMO assay). Conditions: for Km: sodium phosphate buffer pH 7.4, 25° C. The data set is classed as biochemical. As for the experimental part: Diacetylmonoxine (DAMO) assay was used to determine the kinetic parameters of human arginase with different metal cofactors. All enzymatic reactions were carried out at pH 7.4.

Data set [7] relates to 4T1. The data set can be described thus: Cell proliferation assay (MTT, Table 11). Format: cell-based, mouse. Conditions: 4T1 breast, 3 days. As for the experimental part: 1×10^5 cells of a mouse metastatic breast cancer cell line (4T1) were injected orthotopically into the No. 4 inguinal mammary fat pad of wild-type BALB/c mice at the age of 6-8 weeks. When the tumors reached an average of 5 mm, the mice were divided into two different treatment groups (Table 7). BCA-PEG20 (250 U/mouse) or control vehicle (PBS) were injected intraperitoneally twice per week starting from Day 0. Body weight was measured every week. After three weeks, the mice were sacrificed and analyzed for the lung metastasis. The number of lung metastases was counted under a dissecting microscope after rinsing with PBS.
Cell Proliferation Assay: For each cancer cell line, cells (5×10^3) in 100 μL culture medium were seeded to the wells of a 96-well plate and incubated for 24 hours by standard method.

Data set [8] concerns MDA-MB-231. The experiment in a line: Cell proliferation assay (MTT, Table 11). The data set is classed as cell-based. Particulars: MDA-MB-231 breast, 3 days.

Consider `O=c1[nH]cc(F)c(=O)[nH]1` [5-fluorouracil], for which the “effect on tumour growth vs control” value in data set [1] (arginases i.p. twice per week (BCA 500, BCA-PEG20 250 Units/mouse), 5-fluorouracil 10 mg/kg once per week) is given as “did not show significant tumour suppression”. The “average body weight, last recorded” value in data set [1] (mouse, in vivo) came out at 24.5 ± 1.4 g.

B1: BCA mutant V20P Mn^2+ (protein, UniProt P53608 1-299, looked up, variant V20P)
Arginase: MKPISIIGVPMDLGQTRRGPDMGPSAMRYAGVIERLERLHYDIEDLGDIPIGKAERLHEQGDSRLRNLKAVAEANEKLAAAVDQVVQRGRFPLVLGGDHSIAIGTLAGVAKHYERLGVIWYDAHGDVNTAETSPSGNIHGMPLAASLGFGHPALTQIGGYSPKIKPEHVVLIGVRSLDEGEKKFIREKGIKIYTMHEVDRLGMTRVMEETIAYLKERTDGVHLSLDLDGLDPSDAPGVGTPVIGGLTYRESHLAMEMLAEAQIITSAEFVEVNPILDERNKTASVAVALMGSLFGEKLM
modifications: Mn2+
A word on the Km: it is the concentration of substrate that gives half-maximal velocity. With B1, in data set [2], the Km is approximately 1290 µM.

B2: BCAWTMn^2+: wild-type Bacillus caldovelox arginase with Mn^2+ (protein, UniProt P53608 1-299, looked up)
Arginase: B1 Arginase with P20V
modifications: Mn2+
B2: in data set [2], the Km is approximately 3200 µM.

B3: BCA mutant V20P Co^2+ (protein, UniProt P53608 1-299, looked up, variant V20P)
Arginase: B1 Arginase
modifications: Co2+
In the case of B3, in data set [2], the Km is approximately 180 µM.

B4: HAI-PEG20: Cys^45-specific mono-pegylated 6xHis-tagged human arginase I mutant (C168S/C303S) with single chain mPEG-maleimide (20 kDa) (conjugate, UniProt P05089 1-322, looked up, variant C168S C303S)
Arginase-1: MSAKSRTIGIIGAPFSKGQPRGGVEEGPTVLRKAGLLEKLKEQECDVKDYGDLPFADIPNDSPFQIVKNPRSVGKASEQLAGKVAEVKKNGRISLVLGGDHSLAIGSISGHARVHPDLGVIWVDAHTDINTPLTTTSGNLHGQPVSFLLKELKGKIPDVPGFSWVTPSISAKDIVYIGLRDVDPGEHYILKTLGIKYFSMTEVDRLGIGKVMEETLSYLLGRKKRPIHLSFDVDGLDPSFTPATGTPVVGGLTYREGLYITEEIYKTGLLSGLDIMEVNPSLGKTPEEVTRTVNTAVAITLASFGLAREGNHKPIDYLNPPK
modifications: 20 kDa mPEG-maleimide at Cys45; 6xHis tag
In the case of B4, the “effect on tumour growth (tumour volume) vs PBS control” value in data set [3] was “significantly reduced the rate of tumour growth”. Moreover, the average body weight in data set [3] came to 25.0 ± 0.2 g. Besides, in data set [4], the “time at which arginine started to appear after arginase administration” value was 6.8 ± 2.3 days. The arginine depletion result in data set [4] (starting from 6 hr (Day 0)) is reported as “totally depleted”. The molecule also displayed an ornithine level in data set [4] (stayed at high level up to Day 3) of more than 150 µM. Also, the “wells displaying cytopathic effect (positive wells/wells inoculated)” value in data set [5] (1 U/mL) is 8/8; in data set [5] (10 U/mL), 6/8; in data set [5] (50 U/mL) it was 3/8. Also, in data set [5] (H9 cells, five days post infection, cytopathic effect), the “IC50 on HIV” value was “approximately 37 U/mL”.

B5: HAI Co^2+: recombinant human arginase I with cobalt replacing manganese as metal cofactor (protein, UniProt P05089 1-322, looked up)
Arginase-1: B4 Arginase-1 with S168C, S303C
modifications: cobalt cofactor
B5: in data set [6] (pH 7.4, 25° C.), the “improvement of Km value vs HAI Mn^2+” value is reported as “about 10 fold”. Moreover, in data set [6], the Km is 190 µM.

B6: HAI Mn^2+: recombinant human arginase I with Mn^2+ as metal cofactor (protein, UniProt P05089 1-322, looked up)
Arginase-1: B4 Arginase-1 with S168C, S303C
modifications: Mn2+ cofactor
notes: recombinant human arginase I with Mn^2+ as metal cofactor
Regarding B6, the Km in data set [6] amounted to 1830 µM.

B7: HAI: non-pegylated 6xHis-tagged recombinant human arginase I (protein, UniProt P05089 1-322, looked up)
Arginase-1: B4 Arginase-1 with S168C, S303C
modifications: 6xHis tag
notes: non-pegylated 6xHis-tagged recombinant human arginase I
For the molecule B7, in data set [3], the “effect on tumour growth (tumour volume) vs PBS control” value is recorded as “did not show any significant effect” and the average body weight was determined as 25.5 ± 0.2 g. The IC50 in data set [7] came out at 0.058 U/mL. This molecule also returned an IC50 in data set [8] of 0.273 U/mL.
